Source: US20190233494A1 (Sanofi, published 2019)
Starred links: 1 amine or outer side, 2 acyl side, 3 side chain; linkers in the order of their positions; H or OH if unused. Non-standard residues stand in square brackets, D forms with d. Groups on a side chain read outwards from the residue. *: point of attachment. TTDS = 4-[3-[2-[2-(3-aminopropoxy)ethoxy]ethoxy]propylamino]-4-oxo-butanoyl; Trp(5-Cl) = N[C@@H](Cc1c[nH]c2ccc(Cl)cc12)C(=O)O; Trp(5-F) = N[C@@H](Cc1c[nH]c2ccc(F)cc12)C(=O)O; Phe(4-F) = N[C@@H](Cc1ccc(F)cc1)C(=O)O; γGlu = O=C(O)[C@H](CCC(=O)[*:2])N[*:1]; Palmitoyl = CCCCCCCCCCCCCCCC(=O)*; αMeF = C[C@](N)(Cc1ccccc1)C(=O)O; Myristoyl = CCCCCCCCCCCCCC(=O)*; Cit = NC(=O)NCCC[C@H](N)C(=O)O; αMeK = C[C@](N)(CCCCN)C(=O)O; hLys = NCCCCC[C@H](N)C(=O)O; AEEA = NCCOCCOCC(=O)O; Aib = CC(C)(N)C(=O)O

T1: RXFP1 receptor (endogenous, on OVCAR5 cells) (UniProt Q9HBX9 1-757, limits assumed)
T1 sequence (looked up): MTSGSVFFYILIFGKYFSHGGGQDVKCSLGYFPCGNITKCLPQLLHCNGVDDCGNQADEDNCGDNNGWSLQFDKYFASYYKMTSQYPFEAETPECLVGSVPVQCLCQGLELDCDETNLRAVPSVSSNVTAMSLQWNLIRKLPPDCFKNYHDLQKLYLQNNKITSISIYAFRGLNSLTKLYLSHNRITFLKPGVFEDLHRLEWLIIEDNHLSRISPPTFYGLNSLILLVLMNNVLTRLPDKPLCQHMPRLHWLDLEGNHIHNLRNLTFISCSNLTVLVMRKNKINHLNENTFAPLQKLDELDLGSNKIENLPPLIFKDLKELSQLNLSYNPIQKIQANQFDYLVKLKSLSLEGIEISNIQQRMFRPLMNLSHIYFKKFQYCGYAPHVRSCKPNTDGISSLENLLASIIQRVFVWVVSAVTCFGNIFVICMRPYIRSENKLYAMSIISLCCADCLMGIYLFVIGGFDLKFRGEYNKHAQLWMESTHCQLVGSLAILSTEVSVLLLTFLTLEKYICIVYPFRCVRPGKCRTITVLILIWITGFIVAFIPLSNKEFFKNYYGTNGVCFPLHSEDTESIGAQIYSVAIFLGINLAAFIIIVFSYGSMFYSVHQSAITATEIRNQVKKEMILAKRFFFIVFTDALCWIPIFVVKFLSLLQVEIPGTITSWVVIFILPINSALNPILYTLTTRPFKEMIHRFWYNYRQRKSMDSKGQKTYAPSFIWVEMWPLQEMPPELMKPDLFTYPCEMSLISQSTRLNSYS


Target: T1, RXFP1 receptor (endogenous, on OVCAR5 …)
Assay: cell-based or functional assay

| Binder | EC50 (nM), OVCAR 5 cells (cAMP) | EMax, OVCAR 5 cells (cAMP) |
| --- | --- | --- |
| Ac-LEGREKVRAK(Ac)I[Aib][Aib]EGK([TTDS-TTDS-γGlu-γGlu-Palmitoyl])STFS[αMeK]RAK(Ac)-NH2 [peptide of SEQ ID NO: 9] | 0.7 nM | 93% |
| Ac-LEGREKVRAK(Ac)I[Aib][Aib]EGK([TTDS-TTDS-TTDS-γGlu-γGlu-γGlu-Palmitoyl])STF[dS]KRAK(Ac)-NH2 [peptide of SEQ ID NO: 14] | 3.2 nM | 90% |
| Ac-LEGREKVRAK(Ac)I[Aib][Aib]EGK([TTDS-TTDS-TTDS-γGlu-γGlu-γGlu-Palmitoyl])STWS[αMeK]RAK(Ac)-NH2 [peptide of SEQ ID NO: 11] | 0.83 nM | 93% |
| Ac-LEGREKVR[Aib]K(Ac)I[Aib][Aib]EGK([TTDS-TTDS-TTDS-γGlu-γGlu-γGlu-Palmitoyl])STWS[Aib]RAK(Ac)-NH2 [peptide of SEQ ID NO: 82] | 0.54 nM | 95% |
| Ac-LEGREKVRA[Cit]I[Aib][Aib]EGK([TTDS-TTDS-TTDS-γGlu-γGlu-γGlu-Palmitoyl])STFS[αMeK]RAK(Ac)-NH2 [peptide of SEQ ID NO: 12] | 0.93 nM | 90% |
| Ac-[Aib]EGREKVRAK(Ac)I[Aib]IEGK([TTDS-TTDS-TTDS-γGlu-γGlu-γGlu-Palmitoyl])STFS[αMeK]RAK(Ac)-NH2 [peptide of SEQ ID NO: 86] | 0.3 nM | 95% |
| Ac-LEGREKVRAK(Ac)I[Aib][Aib]EGK([TTDS-TTDS-γGlu-γGlu-γGlu-γGlu-Palmitoyl])STFS[αMeK]RAK(Ac)-NH2 [peptide of SEQ ID NO: 10] | 0.79 nM | 95% |
| Ac-LEGREKVRAK(Ac)I[Aib][Aib]EGK([TTDS-TTDS-TTDS-γGlu-γGlu-γGlu-Palmitoyl])STFSRRAK(Ac)-NH2 [peptide of SEQ ID NO: 87] | 0.1 nM | 96% |
| Ac-LEGREKVRAK(Ac)I[Aib][Aib]EGK([TTDS-TTDS-TTDS-γGlu-γGlu-γGlu-Palmitoyl])SKFS[Aib]RKK(Ac)-NH2 [peptide of SEQ ID NO: 79] | 0.45 nM | 95% |
| Ac-LEGREKVRAK(Ac)I[Aib][Aib]EGK([TTDS-TTDS-TTDS-TTDS-γGlu-γGlu-γGlu-Palmitoyl])STFS[αMeK]RAK(Ac)-NH2 [peptide of SEQ ID NO: 78] | 0.18 nM | 99% |
| Ac-LEGREKVRAK(Ac)I[Aib]IEGK([TTDS-TTDS-TTDS-γGlu-γGlu-γGlu-Palmitoyl])STFS[αMeK]RAK(Ac)-NH2 [peptide of SEQ ID NO: 84] | 0.1 nM | 95% |
| Ac-LEGREKVRAK(Ac)I[Aib][Aib]EGK([TTDS-TTDS-TTDS-γGlu-γGlu-γGlu-Palmitoyl])STFSKRAK(Ac)-NH2 [peptide of SEQ ID NO: 13] | 2.12 nM | 91% |
| Ac-LEGRERVR[Aib]K(Ac)I[Aib][Aib]EGK([TTDS-TTDS-TTDS-γGlu-γGlu-γGlu-Palmitoyl])STWS[Aib]RRK(Ac)-NH2 [peptide of SEQ ID NO: 85] | 0.3 nM | 92% |
| Ac-LEGREKVRAK(Ac)I[Aib][Aib]EGK([TTDS-TTDS-TTDS-γGlu-γGlu-γGlu-Palmitoyl])SKWS[Aib]RKK(Ac)-NH2 [peptide of SEQ ID NO: 83] | 0.25 nM | 94% |
| Ac-LEGRERVRAK(Ac)I[Aib][Aib]EGK([TTDS-TTDS-TTDS-γGlu-γGlu-γGlu-Palmitoyl])ST[Trp(5-Cl)]S[Aib]RRK(Ac)-NH2 [peptide of SEQ ID NO: 80] | 0.63 nM | 93% |
| Ac-K(Ac)EGREKVRAK(Ac)I[Aib][Aib]EGK([TTDS-TTDS-TTDS-γGlu-γGlu-γGlu-Palmitoyl])STFS[αMeK]RAK(Ac)-NH2 [peptide of SEQ ID NO: 81] | 0.16 nM | 98% |
| Ac-LEGREKVRAK(Ac)I[Aib][Aib]EGK([AEEA-AEEA-AEEA-AEEA-γGlu-γGlu-γGlu-Palmitoyl])STFS[αMeK]RAK(Ac)-NH2 (SMILES CCCCCCCCCCCCCCCC(=O)N[C@@H](CCC(=O)N[C@@H](CCC(=O)N[C@@H](CCC(=O)NCCOCCOCC(=O)NCCOCCOCC(=O)NCCOCCOCC(=O)NCCOCCOCC(=O)NCCCC[C@H](NC(=O)CNC(=O)[C@H](CCC(=O)O)NC(=O)C(C)(C)NC(=O)C(C)(C)NC(=O)[C@@H](NC(=O)[C@H](CCCCNC(C)=O)NC(=O)[C@H](C)NC(=O)[C@H](CCCNC(=N)N)NC(=O)[C@@H](NC(=O)[C@H](CCCCN)NC(=O)[C@H](CCC(=O)O)NC(=O)[C@H](CCCNC(=N)N)NC(=O)CNC(=O)[C@H](CCC(=O)O)NC(=O)[C@H](CC(C)C)NC(C)=O)C(C)C)[C@@H](C)CC)C(=O)N[C@@H](CO)C(=O)N[C@H](C(=O)N[C@@H](Cc1ccccc1)C(=O)N[C@@H](CO)C(=O)N[C@@](C)(CCCCN)C(=O)N[C@@H](CCCNC(=N)N)C(=O)N[C@@H](C)C(=O)N[C@@H](CCCCNC(C)=O)C(N)=O)[C@@H](C)O)C(=O)O)C(=O)O)C(=O)O) [peptide of SEQ ID NO: 8] | 1.86 nM | 92% |

More lines, now with the values ahead:

| EC50 (nM), OVCAR 5 cells (cAMP) | EMax, OVCAR 5 cells (cAMP) | Binder |
| --- | --- | --- |
| 1.74 nM | 88% | Ac-LEGREKVRAK(Ac)I[Aib][Aib]EGK([TTDS-TTDS-TTDS-γGlu-γGlu-γGlu-Palmitoyl])STFVRRAK(Ac)-NH2 [peptide of SEQ ID NO: 94] |
| 0.1 nM | 97% | Ac-LEGREKVRAK(Ac)I[Aib][Aib]EGK([TTDS-TTDS-TTDS-γGlu-γGlu-γGlu-Palmitoyl])ST[αMeF]SRRAK(Ac)-NH2 [peptide of SEQ ID NO: 89] |
| 0.17 nM | 96% | Ac-LEGREKVRAK(Ac)I[Aib][Aib]EGK([TTDS-TTDS-TTDS-γGlu-γGlu-γGlu-Palmitoyl])STFS[hLys]RAK(Ac)-NH2 [peptide of SEQ ID NO: 88] |
| 0.29 nM | 98% | Ac-LEGREKVRAK(Ac)I[Aib][Aib]EGK([TTDS-TTDS-TTDS-γGlu-γGlu-γGlu-γGlu-Myristoyl])STFS[αMeK]RAK-NH2 [peptide of SEQ ID NO: 97] |
| 0.09 nM | 97% | Ac-LEGRERVRAK(Ac)I[Aib][Aib]EGK([TTDS-TTDS-TTDS-γGlu-γGlu-γGlu-Palmitoyl])ST[Phe(4-F)]S[Aib]RRK(Ac)-NH2 [peptide of SEQ ID NO: 91] |
| 1.8 nM | 91% | Ac-LEGREKVRAK(Ac)I[Aib][Aib]EGK([TTDS-TTDS-TTDS-γGlu-γGlu-γGlu-Myristoyl])STFS[αMeK]RAK(Ac)-NH2 [peptide of SEQ ID NO: 95] |
| 0.77 nM | 86% | Ac-LEGREKVRAK(Ac)I[Aib][Aib]EGK([TTDS-TTDS-TTDS-γGlu-γGlu-γGlu-Palmitoyl])STFTRRAK(Ac)-NH2 [peptide of SEQ ID NO: 93] |
| 0.14 nM | 97% | Ac-LEGREKVRAK(Ac)IA[Aib]EGK([TTDS-TTDS-TTDS-γGlu-γGlu-γGlu-Palmitoyl])STFS[αMeK]RAK(Ac)-NH2 [peptide of SEQ ID NO: 90] |
| 0.88 nM | 92% | Ac-LEGREKVRAK(Ac)I[Aib][Aib]EGK([TTDS-TTDS-TTDS-γGlu-γGlu-γGlu-Myristoyl])STFS[αMeK]RAK-NH2 [peptide of SEQ ID NO: 96] |
| 0.1 nM | 99% | Ac-LEGRERVRAK(Ac)I[Aib][Aib]EGK([TTDS-TTDS-TTDS-γGlu-γGlu-γGlu-Palmitoyl])ST[Trp(5-F)]S[Aib]RRK(Ac)-NH2 [peptide of SEQ ID NO: 92] |
